Numbered stars: 1 amine (or outer) side, 2 acyl side, 3 side chain; on linkers, the order of the positions; unused ones are H or OH. Bridge positions count the residues as written; N and C are the ends. Side chains are listed from the residue outwards. Ends that are not written are not given here. * marks the point of attachment. C20 diacid = O=C(O)CCCCCCCCCCCCCCCCCCC(=O)*; γGlu = O=C(O)[C@H](CCC(=O)[*:2])N[*:1]
T1: human calcitonin receptor (human, UniProt P30988 25-474)
T1 construct: whole, on cells; Used as membranes prepared from the transfected cells; also called hCTR; hCT
T1 sequence (looked up): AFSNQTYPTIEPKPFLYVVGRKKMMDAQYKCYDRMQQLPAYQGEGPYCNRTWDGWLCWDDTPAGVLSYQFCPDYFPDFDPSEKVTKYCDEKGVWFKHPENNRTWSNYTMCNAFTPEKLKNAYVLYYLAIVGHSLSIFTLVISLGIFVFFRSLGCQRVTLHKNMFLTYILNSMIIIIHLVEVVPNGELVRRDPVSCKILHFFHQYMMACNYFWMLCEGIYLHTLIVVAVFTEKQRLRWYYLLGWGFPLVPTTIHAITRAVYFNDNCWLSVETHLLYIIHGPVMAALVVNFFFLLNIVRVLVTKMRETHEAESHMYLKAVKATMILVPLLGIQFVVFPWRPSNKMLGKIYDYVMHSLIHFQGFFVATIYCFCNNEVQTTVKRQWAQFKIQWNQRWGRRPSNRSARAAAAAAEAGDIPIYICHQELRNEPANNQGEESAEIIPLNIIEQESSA

T2: rat calcitonin receptor (rat, UniProt P32214 25-516)
T2 construct: whole, on cells; Used as membranes prepared from the transfected cells; also called rCTR; rCT
T2 sequence (looked up): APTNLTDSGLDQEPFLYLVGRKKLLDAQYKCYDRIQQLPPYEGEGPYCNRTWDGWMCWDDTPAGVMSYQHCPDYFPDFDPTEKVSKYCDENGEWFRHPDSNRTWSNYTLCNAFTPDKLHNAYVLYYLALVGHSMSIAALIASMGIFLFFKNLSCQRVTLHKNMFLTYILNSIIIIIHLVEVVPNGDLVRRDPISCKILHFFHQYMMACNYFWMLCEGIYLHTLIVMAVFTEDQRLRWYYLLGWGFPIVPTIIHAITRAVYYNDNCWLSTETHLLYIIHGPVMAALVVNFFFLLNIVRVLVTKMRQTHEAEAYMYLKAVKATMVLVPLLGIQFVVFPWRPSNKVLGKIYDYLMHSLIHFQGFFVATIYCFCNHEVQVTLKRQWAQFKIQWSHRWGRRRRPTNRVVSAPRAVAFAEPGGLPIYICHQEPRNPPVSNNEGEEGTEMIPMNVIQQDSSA

B1: N^ε1-[(4S)-4-carboxy-4-(19-carboxynonadecanoylamino)butanoyl]-[Arg14,Arg17,Pro21,Pro27]-h-amylin (peptide)
peptide: K([γGlu-C20 diacid])CNTATCATQRLARFLRHSSPNFGAIPSSTNVGSNTY-NH2
modifications: disulfide 2-7; N-terminus assumed
SMILES: CC[C@H](C)[C@H](NC(=O)[C@H](C)NC(=O)CNC(=O)[C@H](Cc1ccccc1)NC(=O)[C@H](CC(N)=O)NC(=O)[C@@H]1CCCN1C(=O)[C@H](CO)NC(=O)[C@H](CO)NC(=O)[C@H](Cc1c[nH]cn1)NC(=O)[C@H](CCCNC(=N)N)NC(=O)[C@H](CC(C)C)NC(=O)[C@H](Cc1ccccc1)NC(=O)[C@H](CCCNC(=N)N)NC(=O)[C@H](C)NC(=O)[C@H](CC(C)C)NC(=O)[C@H](CCCNC(=N)N)NC(=O)[C@H](CCC(N)=O)NC(=O)[C@@H](NC(=O)[C@H](C)NC(=O)[C@@H]1CSSC[C@H](NC(=O)[C@@H](N)CCCCNC(=O)CC[C@H](NC(=O)CCCCCCCCCCCCCCCCCCC(=O)O)C(=O)O)C(=O)N[C@@H](CC(N)=O)C(=O)N[C@@H]([C@@H](C)O)C(=O)N[C@@H](C)C(=O)N[C@@H]([C@@H](C)O)C(=O)N1)[C@@H](C)O)C(=O)N1CCC[C@H]1C(=O)N[C@@H](CO)C(=O)N[C@@H](CO)C(=O)N[C@H](C(=O)N[C@@H](CC(N)=O)C(=O)N[C@H](C(=O)NCC(=O)N[C@@H](CO)C(=O)N[C@@H](CC(N)=O)C(=O)N[C@H](C(=O)N[C@@H](Cc1ccc(O)cc1)C(N)=O)[C@@H](C)O)C(C)C)[C@@H](C)O
notes: Analogue of human amylin; disulfide and C-terminal amide as told for h-amylin; also called compound 83
B2: N^ε1-[(4S)-4-carboxy-4-(19-carboxynonadecanoylamino)butanoyl]-[His14,Arg17,Pro21,Pro27,Arg34]-h-amylin (peptide)
peptide: K([γGlu-C20 diacid])CNTATCATQRLAHFLRHSSPNFGAIPSSTNVGRNTY-NH2
modifications: disulfide 2-7; N-terminus assumed
SMILES: CC[C@H](C)[C@H](NC(=O)[C@H](C)NC(=O)CNC(=O)[C@H](Cc1ccccc1)NC(=O)[C@H](CC(N)=O)NC(=O)[C@@H]1CCCN1C(=O)[C@H](CO)NC(=O)[C@H](CO)NC(=O)[C@H](Cc1c[nH]cn1)NC(=O)[C@H](CCCNC(=N)N)NC(=O)[C@H](CC(C)C)NC(=O)[C@H](Cc1ccccc1)NC(=O)[C@H](Cc1c[nH]cn1)NC(=O)[C@H](C)NC(=O)[C@H](CC(C)C)NC(=O)[C@H](CCCNC(=N)N)NC(=O)[C@H](CCC(N)=O)NC(=O)[C@@H](NC(=O)[C@H](C)NC(=O)[C@@H]1CSSC[C@H](NC(=O)[C@@H](N)CCCCNC(=O)CC[C@H](NC(=O)CCCCCCCCCCCCCCCCCCC(=O)O)C(=O)O)C(=O)N[C@@H](CC(N)=O)C(=O)N[C@@H]([C@@H](C)O)C(=O)N[C@@H](C)C(=O)N[C@@H]([C@@H](C)O)C(=O)N1)[C@@H](C)O)C(=O)N1CCC[C@H]1C(=O)N[C@@H](CO)C(=O)N[C@@H](CO)C(=O)N[C@H](C(=O)N[C@@H](CC(N)=O)C(=O)N[C@H](C(=O)NCC(=O)N[C@@H](CCCNC(=N)N)C(=O)N[C@@H](CC(N)=O)C(=O)N[C@H](C(=O)N[C@@H](Cc1ccc(O)cc1)C(N)=O)[C@@H](C)O)C(C)C)[C@@H](C)O
notes: Analogue of human amylin; disulfide and C-terminal amide as told for h-amylin; also called compound 85
B3: N^ε1-[(4S)-4-carboxy-4-(19-carboxynonadecanoylamino)butanoyl]-[His14,Arg17,Pro21,Pro27,His34]-h-amylin (peptide)
peptide: K([γGlu-C20 diacid])CNTATCATQRLAHFLRHSSPNFGAIPSSTNVGHNTY-NH2
modifications: disulfide 2-7; N-terminus assumed
SMILES: CC[C@H](C)[C@H](NC(=O)[C@H](C)NC(=O)CNC(=O)[C@H](Cc1ccccc1)NC(=O)[C@H](CC(N)=O)NC(=O)[C@@H]1CCCN1C(=O)[C@H](CO)NC(=O)[C@H](CO)NC(=O)[C@H](Cc1c[nH]cn1)NC(=O)[C@H](CCCNC(=N)N)NC(=O)[C@H](CC(C)C)NC(=O)[C@H](Cc1ccccc1)NC(=O)[C@H](Cc1c[nH]cn1)NC(=O)[C@H](C)NC(=O)[C@H](CC(C)C)NC(=O)[C@H](CCCNC(=N)N)NC(=O)[C@H](CCC(N)=O)NC(=O)[C@@H](NC(=O)[C@H](C)NC(=O)[C@@H]1CSSC[C@H](NC(=O)[C@@H](N)CCCCNC(=O)CC[C@H](NC(=O)CCCCCCCCCCCCCCCCCCC(=O)O)C(=O)O)C(=O)N[C@@H](CC(N)=O)C(=O)N[C@@H]([C@@H](C)O)C(=O)N[C@@H](C)C(=O)N[C@@H]([C@@H](C)O)C(=O)N1)[C@@H](C)O)C(=O)N1CCC[C@H]1C(=O)N[C@@H](CO)C(=O)N[C@@H](CO)C(=O)N[C@H](C(=O)N[C@@H](CC(N)=O)C(=O)N[C@H](C(=O)NCC(=O)N[C@@H](Cc1c[nH]cn1)C(=O)N[C@@H](CC(N)=O)C(=O)N[C@H](C(=O)N[C@@H](Cc1ccc(O)cc1)C(N)=O)[C@@H](C)O)C(C)C)[C@@H](C)O
notes: Analogue of human amylin; disulfide and C-terminal amide as told for h-amylin; also called compound 81
B4: N^ε1-[(4S)-4-carboxy-4-(19-carboxynonadecanoylamino)butanoyl]-[Arg17,Pro21,Pro27,His34]-h-amylin (peptide)
peptide: K([γGlu-C20 diacid])CNTATCATQRLANFLRHSSPNFGAIPSSTNVGHNTY-NH2
modifications: disulfide 2-7; N-terminus assumed
SMILES: CC[C@H](C)[C@H](NC(=O)[C@H](C)NC(=O)CNC(=O)[C@H](Cc1ccccc1)NC(=O)[C@H](CC(N)=O)NC(=O)[C@@H]1CCCN1C(=O)[C@H](CO)NC(=O)[C@H](CO)NC(=O)[C@H](Cc1c[nH]cn1)NC(=O)[C@H](CCCNC(=N)N)NC(=O)[C@H](CC(C)C)NC(=O)[C@H](Cc1ccccc1)NC(=O)[C@H](CC(N)=O)NC(=O)[C@H](C)NC(=O)[C@H](CC(C)C)NC(=O)[C@H](CCCNC(=N)N)NC(=O)[C@H](CCC(N)=O)NC(=O)[C@@H](NC(=O)[C@H](C)NC(=O)[C@@H]1CSSC[C@H](NC(=O)[C@@H](N)CCCCNC(=O)CC[C@H](NC(=O)CCCCCCCCCCCCCCCCCCC(=O)O)C(=O)O)C(=O)N[C@@H](CC(N)=O)C(=O)N[C@@H]([C@@H](C)O)C(=O)N[C@@H](C)C(=O)N[C@@H]([C@@H](C)O)C(=O)N1)[C@@H](C)O)C(=O)N1CCC[C@H]1C(=O)N[C@@H](CO)C(=O)N[C@@H](CO)C(=O)N[C@H](C(=O)N[C@@H](CC(N)=O)C(=O)N[C@H](C(=O)NCC(=O)N[C@@H](Cc1c[nH]cn1)C(=O)N[C@@H](CC(N)=O)C(=O)N[C@H](C(=O)N[C@@H](Cc1ccc(O)cc1)C(N)=O)[C@@H](C)O)C(C)C)[C@@H](C)O
notes: Analogue of human amylin; disulfide and C-terminal amide as told for h-amylin; also called compound 77
B5: N^ε1-[(4S)-4-carboxy-4-(19-carboxynonadecanoylamino)butanoyl]-[Arg17,Pro21,Pro27,Arg34]-h-amylin (peptide)
peptide: K([γGlu-C20 diacid])CNTATCATQRLANFLRHSSPNFGAIPSSTNVGRNTY-NH2
modifications: disulfide 2-7; N-terminus assumed
SMILES: CC[C@H](C)[C@H](NC(=O)[C@H](C)NC(=O)CNC(=O)[C@H](Cc1ccccc1)NC(=O)[C@H](CC(N)=O)NC(=O)[C@@H]1CCCN1C(=O)[C@H](CO)NC(=O)[C@H](CO)NC(=O)[C@H](Cc1c[nH]cn1)NC(=O)[C@H](CCCNC(=N)N)NC(=O)[C@H](CC(C)C)NC(=O)[C@H](Cc1ccccc1)NC(=O)[C@H](CC(N)=O)NC(=O)[C@H](C)NC(=O)[C@H](CC(C)C)NC(=O)[C@H](CCCNC(=N)N)NC(=O)[C@H](CCC(N)=O)NC(=O)[C@@H](NC(=O)[C@H](C)NC(=O)[C@@H]1CSSC[C@H](NC(=O)[C@@H](N)CCCCNC(=O)CC[C@H](NC(=O)CCCCCCCCCCCCCCCCCCC(=O)O)C(=O)O)C(=O)N[C@@H](CC(N)=O)C(=O)N[C@@H]([C@@H](C)O)C(=O)N[C@@H](C)C(=O)N[C@@H]([C@@H](C)O)C(=O)N1)[C@@H](C)O)C(=O)N1CCC[C@H]1C(=O)N[C@@H](CO)C(=O)N[C@@H](CO)C(=O)N[C@H](C(=O)N[C@@H](CC(N)=O)C(=O)N[C@H](C(=O)NCC(=O)N[C@@H](CCCNC(=N)N)C(=O)N[C@@H](CC(N)=O)C(=O)N[C@H](C(=O)N[C@@H](Cc1ccc(O)cc1)C(N)=O)[C@@H](C)O)C(C)C)[C@@H](C)O
notes: Analogue of human amylin; disulfide and C-terminal amide as told for h-amylin; also called compound 79

Key:
[1] = molecular target: T1, human calcitonin receptor; experiment: ratio of binding IC50 at human calcitonin receptor to IC50 at human amylin receptor (reference)
Method in brief: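 Competition binding by SPA uses membrane preparations (35 ng/μL final) in pH 7.4 Hepes buffer with 1 mM CaCl2 and 5 mM MgCl₂. Incubation lasts 120 min at 25° C, and IC₅₀ comes from one-site fitting.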

rat calcitonin receptor [2] = molecular target: T2, rat calcitonin receptor; experiment: SPA competition with 125I-calcitonin, membranes with rat calcitonin receptor (Assay VIII)
rat calcitonin receptor [3] = molecular target: T2, rat calcitonin receptor; experiment: ratio of binding IC50 at rat calcitonin receptor to IC50 at rat amylin receptor (reference)

| Binder | Ratio hCT/hAmylin binding [1] | IC50 (rat calcitonin receptor [2]) | Ratio rCT/rAmylin binding (rat calcitonin receptor [3]) |
| --- | --- | --- | --- |
| B1 | 146 | 0.141 µM | 49.7 |
| B2 | 91.8 | 0.146 µM | 46.5 |
| B3 | 87.2 | 0.0612 µM | 42.9 |
| B4 | 118 | 0.205 µM | 137 |
| B5 | 46.1 | 0.0355 µM | 21.5 |
